From the supplement of paper PMC9170038

Tested on: MS2 coat protein
Test: apparent KD of MS2 coat protein; designed switch direction (-1 OFF switch, 1 ON switch): -1; higher = weaker reporter binding
How it was run: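 Normalised cluster fluorescence was curve-fitted, and each design's median over clusters is its apparent KD. Before this, SNAP-549-labelled MS2 coat protein was titrated from 0.7 or 1.5 nM, doubling to 3 µM, over RNA switches transcribed on Illumina chips by stalled E. coli RNA polymerase. Titrations had no input, 200 uM small-molecule ligand, or an oligonucleotide input, and steps lasted 0.8–1.5 h (lowest) to 10–20 min (highest).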

[1] = Eterna round: R95, input ligand: microRNA oligo, concentration not stated
[2] = Eterna round: R95, input ligand: FMN 200 uM
[3] = Eterna round: R95, input ligand: none

| Sequence | apparent KD of MS2 coat protein (input ligand: FMN 200 uM) [nM] | apparent KD of MS2 coat protein (input ligand: none) [nM] | apparent KD of MS2 coat protein [1] [nM] | also measured |
| --- | --- | --- | --- | --- |
| AAUAACAGAGGAUAUACGAAAAUAAGCGGAAACGCAAAGGGACAUGAGGAUCACCCAUGUAGAAGGCUGGAUAA [Tetraloop... 61% 2] (Eterna round: R96, puzzle: Exclusion 2) | 204 | 34.2 |  | apparent KD of MS2 coat protein (input ligand: microRNA oligo, concentration not stated): 19.6 nM |
| AAUAACAGAGGAUAUACUAUUUUAUGUGUUUAUUGUUUUGAACAUGAGGAUCACCCAUGUAGAAGGCUGAAUAA [JMF 24] (puzzle: Exclusion 2) |  |  | 22.3 |  |
| AAUAACAGAGGAUAUACUAUUUUAUGUGUUUAUUGUUUUGAACAUGAGGAUCACCCAUGUAGAAGGCUGAUUGA [JMF 78] (puzzle: Exclusion 2) |  |  | 40.7 |  |
| AAUAACAGAGGAUAUACUGUUUUAUGUAUUUAUUAUUUUAAACAUGAGGAUCACCCAUGUAGAAGGCUGAUUAA [JMF 43] (puzzle: Exclusion 2) |  |  | 27.4 |  |
| AAUAACAGAGGAUAUACUGUUUUAUGUGUUUGUUAUUUUAAACAUGAGGAUCACCCAUGUAGAAGGCUGAAUGA [JMF 57] (puzzle: Exclusion 2) |  |  | 22 |  |
| AAUAACAGAGGAUAUACUGUUUUAUGUGUUUGUUGUUUUAAACAUGAGGAUCACCCAUGUAGAAGGCUGAGUAA [JMF 34] (puzzle: Exclusion 2) |  |  | 21 |  |
| AAUAAGUGAGGAUAUACGUCUGGACCCGGGAGGGCUAUAUAACAUGAGGAUCACCCAUGUAGAAGGCACAAUAA [Excls2-IV] (puzzle: Exclusion 2) |  |  | 16.2 |  |
| AAUAAGUGAGGAUAUGCGUCUGGUCCCGGGAGGGCUAUAUAACAUGAGGAUCACCCAUGUAGAAGGCACAAUAA [Excls2IV] (puzzle: Exclusion 2) |  |  | 15.2 |  |
| AAUAAUAAAGUCAGGAUAUCUAGAGCUUCGGCUCUAGAGAAGGGACAUGAGGAUCACCCAUGUCACUCAAUAAU [BmEx4/3-D1] (Eterna round: R97, puzzle: Brourd's mod of Exclusion 4) | 21.6 | 15.1 |  |  |
| AAUAAUAAUGUGAGGAUAUCUAGAGCCUCGGCUCUAGAGAAGGCACAUGAGGAUCACCCAUGUCUCAAUAAUAA [BmEx4/2-E5] (Eterna round: R97, puzzle: Brourd's mod of Exclusion 4) | 307 | 52.8 |  |  |
| AAUAAUGAUAAGGAUAUCACUAGCGAUAGCUAGUGAGAAGGUAUCACAUGAGGAUCACCCAUGUGUUCCAAUAA [Ex6/6-A4] (Eterna round: R97, puzzle: Exclusion 6) | 35.2 | 17 |  |  |
| AAUAAUGGAGGAUAUACUAAAAUAUGAAUAAAAUAAAUAAAACAUGAGGAUCACCCAUGUAGAAGGCCAAAUAA [JMF's Not so obvious solution 2] (puzzle: Exclusion 2) |  |  | 22.7 | apparent KD of MS2 coat protein [2]: 20.9 nM; apparent KD of MS2 coat protein [3]: 27.7 nM |
| AAUAAUUGUGACAUGGGCGACAUGAGGAUCACCCAUGUUACAAGCUUGUUGCUCGUCUUAUAAUUAACCCAUGUCAC [LRO Sensor-off var1-22 mod of Stov1-13-A1 by Brourd] (Eterna round: R97, puzzle: Sensor, turn-off variant 1) | 16.3 | 15.2 |  |  |
| AAUAAUUGUGACUUGGGCGACAUGAGGAUCACCCAUGUUACAAGCUUGUUGCUCGUCUUAUAAUUAACCCAUGUCAC [LRO Sensor-off var1-23 mod of Stov1-13-A1 by Brourd] (Eterna round: R97, puzzle: Sensor, turn-off variant 1) | 15.8 | 18.4 |  |  |
| AAUACAAGCUAUUGAUCCCACAUGAGGAUCACCCAUGUAGCUGGCGGUGACACCUCCUUUACGAUAGCUCGUCUUAU [Sensor-V1 #55] (Eterna round: R97, puzzle: Sensor, turn-off variant 1) | 604 | 1200 |  |  |
| AAUACACAUGAGGAUCACCCAUGUUAGGAUAUGAGCGGGCAGACAGACAGACAGACGAUCAGAAGGAAUAGGAA [Excls1-VI] (puzzle: Exclusion 1) |  |  | 30.2 | apparent KD of MS2 coat protein [2]: 25.5 nM; apparent KD of MS2 coat protein [3]: 28.9 nM |
| AAUACACAUGAGGAUCACCCAUGUUAGGAUAUUAGCGGGCAGACAGACAGACAGACGAUGAGAAGGAACAGGAA [Excls1-VII] (puzzle: Exclusion 1) |  |  | 22.3 | apparent KD of MS2 coat protein [2]: 23.3 nM; apparent KD of MS2 coat protein [3]: 27.7 nM |
| AAUACUAACACGAAAGUGUUAGUACAAUAAGCUUGUGAAACAUGAGGAUCACCCAUGUCCUCAUAAGCUCGUCUUAA [salish99_TOv2_r3_011] (puzzle: Sensor v3, turn-off variant 2) |  |  | 309 | apparent KD of MS2 coat protein [2]: 12.3 nM; apparent KD of MS2 coat protein [3]: 13.1 nM |
| AAUAGCUAAGGAUAUACAUGAGGAUCACCCAUGUAAAACACUACUUGGAACCGCCUCGGUAGAAGGUAGAAAAU [Arbean] (puzzle: Exclusion 3) |  |  | 21.5 |  |
| AAUAUACUAGGAUAUACAUGAGGAUCACCCAUGUCCGCAUAUUGGGAUCUUAGACCUUGUAGAAGGAGUGGACG [Eternabot (L2) Solution 15] (Eterna round: R97, puzzle: Exclusion 3) | 99.2 | 97.6 |  |  |
| AAUAUUAGAGGAUAUACAGUUUAUUACAUGAGGAUCACCCAUGUUCUUCAAUGUAUAUAAGUAGAAGGCUAAGGAA [EX-5 Malc#2] (puzzle: Exclusion 5) |  |  | 42.6 | apparent KD of MS2 coat protein [2]: 157 nM; apparent KD of MS2 coat protein [3]: 43.7 nM |
